Measurements: patent US9969998B2, “Compositions of adenosine deaminase-2 (ADA2), variants thereof and methods of using same” (Halozyme, Inc., priority 2014, dated 2018)

How the values were obtained:
[1] = Adenosine deaminase (ADA) enzymatic activity assay kit; format: biochemical; settings: for adenosine deaminase activity mU/mL / ΔA/min, adenosine deaminase activity: protein diluted to 5 μg/mL, serially diluted 2 fold (Table 21); for % activity vs. WT: relative to rHuADA2 WT (Table 21)
[2] = Heparin-affinity chromatography (heparin-Sepharose, SDS-PAGE); format: binding; settings: for Heparin Column Binding: compared to WT rHuADA2, 0.3 mg/mL protein
Method: To assess binding of variants to heparin, heparin-affinity chromatography was employed to identify heparin-bound variants. Heparin binding was tested by mixing 35 μL of rHuADA2 WT and variants with 20 μL heparin-Sepharose™ resin (GE Healthcare, Pittsburgh, Pa.; Cat. No. 17-0998-01), followed by incubating at room temperature for 30 min. The mixture was then centrifuged through a 0.22 μm centrifuge filter and the flow-through, containing the unbound protein, was collected for analysis on an SDS-PAGE gel. 35 μL of 1.5 M NaCl was added to heparin-Sepharose resin and incubated at room temperature (RT) for 10 min to elute the remaining heparin-bound protein from the heparin-Sepharose. Samples of purified WT rHuADA2 and tested variants, before and after mixing with the heparin-Sepharose resin, were analyzed by SDS-PAGE to compare the degree of heparin binding.

[3] = Heparin binding ELISA (heparin coated microtiter plate); settings: 3 μM protein
Method: A 96-well plate was coated with 100 μL of 200 μg/mL heparin sodium salt (Calibochem, EMD Milipore, Billerica, Mass.; Cat. No. 375095) in Na2CO3 buffer (pH 9.6), overnight at 4° C. The wells were blocked with 5% milk in PBS, and washed 6 times with PBS. 3 μM of select rHuADA2 variants (see Table 20), WT rHuADA2 (positive control) and WT rHuADA1 (negative control) were added to the wells individually and incubated for 2 hours at room temperature, followed by washing 6 times with PBS. 100 μL of 1:1000 diluted horseradish peroxidase (HRP)-anti-FLAG antibody (Abcam, Cambridge, UK; Cat. No. Ab1238) was added to the wells to detect binding and incubated at room temperature for 1 hour. The ELISA reactions were developed by adding the 3,3′,5,5′-Tetramethylbenzidine (TMB) substrate solution (Pierce, Thermo Fisher Scientific, Rockford, Ill.) according the manufacturer's instructions and reading the optical density at 450 nm (OD450) on a plate reader.

| Molecule | enzymatic activity relative to WT rHuADA2 [1] | adenosine deaminase activity mU/mL [1] [mU/mL] | ΔA/min, adenosine deaminase activity [1] | % activity vs. WT [1] [%] | heparin binding compared to WT [2] | Heparin Column Binding [2] | Average OD450, heparin binding ELISA ([3]; Set 1) | Average OD450, heparin binding ELISA ([3]; Set 2) |
| --- | --- | --- | --- | --- | --- | --- | --- | --- |
| K375E: ADA2 variant SEQ ID NO:24 (protein, human ADA2 K372E, mature numbering) IDETRAHLLLKEKMMRLGGRLVLNTKEELANERLMTLKIAEMKEAMRTLIFPPSMHFFQAKHLIERSQVFNILRMMPKGAALHLHDIGIVTMDWLVRNVTYRPHCHICFTPRGIMQFRFAHPTPRPSEKCSKWILLEDYRKRVQNVTEFDDSLLRNFTLVTQHPEVIYTNQNVVWSKFETIFFTISGLIHYAPVFRDYVFRSMQEFYEDNVLYMEIRARLLPVYELSGEHHDEEWSVKTYQEVAQKFVETHPEFIGIKIIYSDHRSKDVAVIAESIRMAMGLRIKFPTVVAGFDLVGHEDTGHSLHDYKEALMIPAKDGVKLPYFFHAGETDWQGTSIDRNILDALMLNTTRIGHGFALSKHPAVRTYSWKEDIPIEVCPISNQVLKLVSDLRNHPVATLMATGHPMVISSDDPAMFGAKGLSYDFYEVFMGIGGMKADLRTLKQLAMNSIKYSTLLESEKNTFMEIWKKRWDKFIADVATK | improved enzymatic activity | 108.1 | 47 | 138.6 | attenuated heparin binding | Reduced | 0.21 |  |
| R23A/K374A: ADA2 variant SEQ ID NO:57 (protein, human ADA2 R20A/K371A, mature numbering) IDETRAHLLLKEKMMRLGGALVLNTKEELANERLMTLKIAEMKEAMRTLIFPPSMHFFQAKHLIERSQVFNILRMMPKGAALHLHDIGIVTMDWLVRNVTYRPHCHICFTPRGIMQFRFAHPTPRPSEKCSKWILLEDYRKRVQNVTEFDDSLLRNFTLVTQHPEVIYTNQNVVWSKFETIFFTISGLIHYAPVFRDYVFRSMQEFYEDNVLYMEIRARLLPVYELSGEHHDEEWSVKTYQEVAQKFVETHPEFIGIKIIYSDHRSKDVAVIAESIRMAMGLRIKFPTVVAGFDLVGHEDTGHSLHDYKEALMIPAKDGVKLPYFFHAGETDWQGTSIDRNILDALMLNTTRIGHGFALSKHPAVRTYSWAKDIPIEVCPISNQVLKLVSDLRNHPVATLMATGHPMVISSDDPAMFGAKGLSYDFYEVFMGIGGMKADLRTLKQLAMNSIKYSTLLESEKNTFMEIWKKRWDKFIADVATK |  | 117.6 | 51.1 | 150.7 |  | Reduced |  | 0.17 |
| R369E: ADA2 variant SEQ ID NO:33 (protein, human ADA2 R366E, mature numbering) IDETRAHLLLKEKMMRLGGRLVLNTKEELANERLMTLKIAEMKEAMRTLIFPPSMHFFQAKHLIERSQVFNILRMMPKGAALHLHDIGIVTMDWLVRNVTYRPHCHICFTPRGIMQFRFAHPTPRPSEKCSKWILLEDYRKRVQNVTEFDDSLLRNFTLVTQHPEVIYTNQNVVWSKFETIFFTISGLIHYAPVFRDYVFRSMQEFYEDNVLYMEIRARLLPVYELSGEHHDEEWSVKTYQEVAQKFVETHPEFIGIKIIYSDHRSKDVAVIAESIRMAMGLRIKFPTVVAGFDLVGHEDTGHSLHDYKEALMIPAKDGVKLPYFFHAGETDWQGTSIDRNILDALMLNTTRIGHGFALSKHPAVETYSWKKDIPIEVCPISNQVLKLVSDLRNHPVATLMATGHPMVISSDDPAMFGAKGLSYDFYEVFMGIGGMKADLRTLKQLAMNSIKYSTLLESEKNTFMEIWKKRWDKFIADVATK | improved enzymatic activity | 115.9 | 50.4 | 148.5 | attenuated heparin binding | Reduced |  | 0.18 |
| K455E: ADA2 variant SEQ ID NO:27 (protein, human ADA2 K452E, mature numbering) IDETRAHLLLKEKMMRLGGRLVLNTKEELANERLMTLKIAEMKEAMRTLIFPPSMHFFQAKHLIERSQVFNILRMMPKGAALHLHDIGIVTMDWLVRNVTYRPHCHICFTPRGIMQFRFAHPTPRPSEKCSKWILLEDYRKRVQNVTEFDDSLLRNFTLVTQHPEVIYTNQNVVWSKFETIFFTISGLIHYAPVFRDYVFRSMQEFYEDNVLYMEIRARLLPVYELSGEHHDEEWSVKTYQEVAQKFVETHPEFIGIKIIYSDHRSKDVAVIAESIRMAMGLRIKFPTVVAGFDLVGHEDTGHSLHDYKEALMIPAKDGVKLPYFFHAGETDWQGTSIDRNILDALMLNTTRIGHGFALSKHPAVRTYSWKKDIPIEVCPISNQVLKLVSDLRNHPVATLMATGHPMVISSDDPAMFGAKGLSYDFYEVFMGIGGMKADLRTLKQLAMNSIEYSTLLESEKNTFMEIWKKRWDKFIADVATK | improved enzymatic activity | 127.3 | 55.4 | 163.2 | attenuated heparin binding | Reduced |  | 0.26 |
